We go through 13 molecules from US20210095032A1 (SALUBRIS CHENGDU BIOTECH, published 2021).

Changes are numbered by the printed parent chain. Where two headings read alike, the source gives them in different places.

What all share (assay): capture ELISA, antibody captured on plate, biotin-labeled human PD-1 Fc in solution
Assay [1] has as its target T1, biotin-labeled human PD-1 Fc protein (human, biotin-labeled (site not stated)).
T1 construct: also called PD-1-Fc-biotin
As for the experimental part: (§1) Plates were washed 4 times with wash buffer (PBS+0.05% Tween-20, PBST) and then blocked with 200 μl/well blocking buffer (5% w/v non-fatty milk in PBST) for 2 hours at 37° C. […] After a final wash, plates were incubated with 100 μl/well ELISA substrate TMB (Innoreagents). The reaction was stopped in 15 minutes at 25° C. with 50 μl/well 1M H₂SO₄, and the absorbance was read at 450 nm. Data were analyzed using Graphpad Prism software and EC₅₀ values were reported.

Assay [2] concerns the target T1, biotin-labeled human PD-1 Fc protein. How it is done: as §1
This is another data set of the same source.

Assay [3] shares this target. How it is done: as §1
This is another data set of the same source.

T1 sequence (chain, as listed by the source limits assumed): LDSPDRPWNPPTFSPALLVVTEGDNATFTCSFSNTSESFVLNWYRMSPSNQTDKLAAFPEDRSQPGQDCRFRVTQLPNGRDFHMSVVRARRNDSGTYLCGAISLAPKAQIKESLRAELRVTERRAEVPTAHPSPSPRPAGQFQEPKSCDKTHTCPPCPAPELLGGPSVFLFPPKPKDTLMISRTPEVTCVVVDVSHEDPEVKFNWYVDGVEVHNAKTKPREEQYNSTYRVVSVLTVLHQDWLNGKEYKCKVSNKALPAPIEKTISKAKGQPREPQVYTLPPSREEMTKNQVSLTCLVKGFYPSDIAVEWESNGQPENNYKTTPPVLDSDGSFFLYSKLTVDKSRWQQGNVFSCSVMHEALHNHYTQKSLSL

B1: huD2A4-V1 (antibody, human IgG1, kappa)
heavy: not shown
light: DIQMTQSPSSVSASVGDRVTITCLASQTIGTWLAWYQQKPGKSPKLLIYAATSLADGVPSRFSGSGSGTDFTLTISSLQPEDFATYYCQQVSSIPWTFGGGTKVEIKRTVAAPSVFIFPPSDEQLKSGTASVVCLLNNFYPREAKVQWKVDNALQSGNSQESVTEQDSKDSTYSLSSTLTLSKADYEKHKVYACEVTHQGLSSPVTKSFNRGEC
notes: Humanized D2A4, human IgG1/kappa
In assay [1], B1 returned an EC50 of 0.385 ng/mL.

B2: huD2A4-V2 (antibody, human IgG1, kappa)
heavy: not shown
light: B1 light
notes: as for B1
In assay [1], B2 had an EC50 of 0.379 ng/mL.

B3: huD2H3-V1 (antibody, human IgG1, kappa)
heavy: not shown
light: DIVLTQSPDSLAVSLGERATINCRASESVSLHGTRLMHWYQQKPGQPPKLLISLGSNLESGVPDRFSGSGSETDFTLTISSLQAEDVAVYFCQQSIEDPWTFGQGTKLEIKRTVAAPSVFIFPPSDEQLKSGTASVVCLLNNFYPREAKVQWKVDNALQSGNSQESVTEQDSKDSTYSLSSTLTLSKADYEKHKVYACEVTHQGLSSPVTKSFNRGEC
notes: Humanized D2H3, human IgG1/kappa
Turning to B3, in assay [2], the EC50 was 0.28 ng/mL.

B4: huD2H3-V6 (antibody, human IgG1, kappa, V domains shown)
VH: EVQLVQSGAEVKKPGSSVKVSCKSSGYTFTNYWMHWVRQAPGQGLEWIGAIFPRNSETNYNQKFKARATLTADESTSTAYMELSSLRSEDTAVYFCTRNRYGLDYWGQGTLVTVSS
VL: DIVLTQSPDSLAVSLGERATINCRASESVSLHGTRLMHWYQQKPGQPPKLLISLGSNLESGVPDRFSGSGSETDFTLTISSLQAEDVAVYFCQQSIEDPWTFGQGTKLEIKR
notes: as for B3
Turning to B4, the EC50 in assay [2] stood at 0.17 ng/mL.

B5: huD2H3-V9 (antibody, human IgG1, kappa, V domains shown)
VH: B4 VH with E74T
VL: B4 VL with S53Y
notes: as for B3
Take B5: the midpoint of the response in assay [3], the EC50, lay at 0.358 ng/mL.

B6: huD2H3-V7 (antibody, human IgG1, kappa, V domains shown)
VH: B4 VH with E74T, F95Y
VL: B4 VL
notes: as for B3
Regarding B6, the response in assay [3] was half-maximal at 0.157 ng/mL (EC50).

B7: huD2H3-V3 (antibody, human IgG1, kappa, V domains shown)
VH: B4 VH with I48M, E74T
VL: B4 VL
notes: as for B3
B7 came in with an EC50 in assay [2] of 0.19 ng/mL.

B8: huD2H3-V4 (antibody, human IgG1, kappa, V domains shown)
VH: B4 VH with A68V, E74T
VL: B4 VL
notes: as for B3
With B8, the response in assay [2] was half-maximal at 0.28 ng/mL (EC50).

B9: huD2H3-V10 (antibody, human IgG1, kappa, V domains shown)
VH: B4 VH with E74T
VL: B4 VL with E72G
notes: as for B3
As for B9, a half-maximal response in assay [3] (EC50) required 0.505 ng/mL.

B10: huD2H3-V5 (antibody, human IgG1, kappa, V domains shown)
VH: B4 VH with L70I, E74T
VL: B4 VL
notes: as for B3
The molecule B10 registered an EC50 in assay [2] of 0.32 ng/mL.

B11: huD2H3-V8 (antibody, human IgG1, kappa)
heavy: not shown
light: B3 light with L4M
notes: as for B3
Take B11: the EC50 in assay [3] worked out at 0.171 ng/mL.

B12: huD2H3-V11 (antibody, human IgG1, kappa, V domains shown)
VH: B4 VH with E74T
VL: B4 VL with F91Y
notes: as for B3
For B12, the EC50 in assay [3] was 0.17 ng/mL.

B13: huD2H3-V2 (antibody, human IgG1, kappa, V domains shown)
VH: B4 VH with S24A, E74T
VL: B4 VL
notes: as for B3
Turning to B13, in assay [2], it took 0.21 ng/mL to reach a half-maximal effect (EC50).

By EC50 is commonly meant the midpoint of the concentration-response curve. The low end stands for an effect from little substance, the high end for a need for much substance.
